In patent publication US20120316071A1 (published 2012):

What was measured:
[1] = biological target: T1, Recombinant Human DLL4 (R&D Systems Cat#1506-D4/CF) (human, UniProt Q9NR61 27-529); experiment: ECL Multispot (MSD), antigen spotted; Fab 5 (µM); blank 102; first of duplicates
T1 construct: Bought recombinant protein; also called delta-like protein 4; rHuman DLL4

[2] = biological target: T2, rHuman ErbB2/Fc Chimera, CF (R&D Systems Cat#1129-ER) (human, UniProt P04626 23-652); experiment: as above
T2 construct: Bought recombinant protein; Fc part of the bought chimera not given

[3] = biological target: T3, rHuman EGF R/Fc Chimera, CF (R&D Systems Cat#344-ER) (human, UniProt P00533 25-645); experiment: as above
T3 construct: Bought recombinant protein; Fc part of the bought chimera not given

[4] = biological target: T4, rHuman HGF R/c-MET/Fc Chimera, CF (R&D Systems Cat#358-MT/CF) (human, UniProt P08581 25-932); experiment: as above
T4 construct: Bought recombinant protein; also called HGF R/Fc; Fc part of the bought chimera not given

[5] = biological target: T5, rHuman IGF-1 sR, CF (R&D Systems Cat#391-GR) (human, UniProt P08069 31-932); experiment: as above
T5 construct: Bought recombinant soluble receptor; also called insulin-like growth factor-1 soluble receptor

[6] = biological target: T6, rHuman P-Cadherin/Fc Chimera, CF (R&D Systems Cat#861-PC) (human, UniProt P22223 108-654); experiment: as above
T6 construct: Bought recombinant protein; Fc part of the bought chimera not given

[7] = biological target: T1, Recombinant Human DLL4 (R&D Systems …); experiment: ECL Multispot (MSD), antigen spotted; Fab 50 (µM); blank 332; first of duplicates
[8] = biological target: T2, rHuman ErbB2/Fc Chimera, CF (R&D …); experiment: as above
[9] = biological target: T3, rHuman EGF R/Fc Chimera, CF (R&D …); experiment: as above
[10] = biological target: T4, rHuman HGF R/c-MET/Fc Chimera, CF (R&D …); experiment: as above
[11] = biological target: T5, rHuman IGF-1 sR, CF (R&D Systems …); experiment: as above
[12] = biological target: T6, rHuman P-Cadherin/Fc Chimera, CF (R&D …); experiment: as above
[13] = biological target: T1, Recombinant Human DLL4 (R&D Systems …); experiment: ECL Multispot (MSD), antigen spotted; Fab 0.50 (µM); blank 95; first of duplicates
[14] = biological target: T2, rHuman ErbB2/Fc Chimera, CF (R&D …); experiment: as above
[15] = biological target: T3, rHuman EGF R/Fc Chimera, CF (R&D …); experiment: as above
[16] = biological target: T4, rHuman HGF R/c-MET/Fc Chimera, CF (R&D …); experiment: as above
[17] = biological target: T5, rHuman IGF-1 sR, CF (R&D Systems …); experiment: as above
[18] = biological target: T6, rHuman P-Cadherin/Fc Chimera, CF (R&D …); experiment: as above
[19] = biological target: T1, Recombinant Human DLL4 (R&D Systems …); experiment: ECL Multispot (MSD), antigen spotted; Fab 500 (µM); blank 570; first of duplicates
[20] = biological target: T2, rHuman ErbB2/Fc Chimera, CF (R&D …); experiment: as above
[21] = biological target: T3, rHuman EGF R/Fc Chimera, CF (R&D …); experiment: as above
[22] = biological target: T4, rHuman HGF R/c-MET/Fc Chimera, CF (R&D …); experiment: as above
[23] = biological target: T5, rHuman IGF-1 sR, CF (R&D Systems …); experiment: as above
[24] = biological target: T6, rHuman P-Cadherin/Fc Chimera, CF (R&D …); experiment: as above

T4 sequence (P08581 25-932, change not shown): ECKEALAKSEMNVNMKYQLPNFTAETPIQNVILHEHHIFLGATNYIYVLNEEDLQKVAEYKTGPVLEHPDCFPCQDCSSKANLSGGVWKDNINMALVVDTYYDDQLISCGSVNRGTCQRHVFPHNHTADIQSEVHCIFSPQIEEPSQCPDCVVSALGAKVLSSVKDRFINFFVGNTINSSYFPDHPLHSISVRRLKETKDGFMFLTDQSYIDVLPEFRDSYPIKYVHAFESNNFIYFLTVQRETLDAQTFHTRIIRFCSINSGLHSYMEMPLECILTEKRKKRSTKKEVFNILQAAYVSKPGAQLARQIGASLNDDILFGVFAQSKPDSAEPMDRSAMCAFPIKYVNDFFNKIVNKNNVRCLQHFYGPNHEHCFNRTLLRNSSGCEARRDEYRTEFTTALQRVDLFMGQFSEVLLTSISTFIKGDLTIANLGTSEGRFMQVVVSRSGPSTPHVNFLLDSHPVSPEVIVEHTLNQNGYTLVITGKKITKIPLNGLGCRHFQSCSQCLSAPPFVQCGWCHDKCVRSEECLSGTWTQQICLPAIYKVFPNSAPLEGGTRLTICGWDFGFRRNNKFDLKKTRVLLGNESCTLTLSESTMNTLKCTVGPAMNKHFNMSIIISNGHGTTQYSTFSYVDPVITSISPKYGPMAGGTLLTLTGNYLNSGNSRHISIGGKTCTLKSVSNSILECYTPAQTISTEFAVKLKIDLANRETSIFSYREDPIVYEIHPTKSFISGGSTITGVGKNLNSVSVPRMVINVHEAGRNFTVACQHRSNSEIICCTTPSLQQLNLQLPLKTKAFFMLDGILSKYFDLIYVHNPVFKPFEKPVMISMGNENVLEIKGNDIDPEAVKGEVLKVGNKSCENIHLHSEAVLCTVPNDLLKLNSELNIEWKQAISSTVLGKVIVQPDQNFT

- ECL signal [1]: 76300
- ECL signal [2]: 225
- ECL signal [3]: 229
- ECL signal [4]: 208
- ECL signal [5]: 232
- ECL signal [6]: 290
- ECL signal [7]: 79400
- ECL signal [8]: 394
- ECL signal [9]: 452
- ECL signal [10]: 368
- ECL signal [11]: 283
- ECL signal [12]: 349
- ECL signal [13]: 8320
- ECL signal [14]: 130
- ECL signal [15]: 137
- ECL signal [16]: 104
- ECL signal [17]: 94
- ECL signal [18]: 106
- ECL signal [19]: 26900
- ECL signal [20]: 908
- ECL signal [21]: 2410
- ECL signal [22]: 945
- ECL signal [23]: 722
- ECL signal [24]: 1010
B1: Fab VH1-46_IGHD6-6*01_IGHJ1*01 S102A/S103P/S104F/H111F (APFF) & L6_IGKJ1*01 (Fab, V domains shown)
VH: QVQLVQSGAEVKKPGASVKVSCKASGYTFTSYYMHWVRQAPGQGLEWMGIINPSGGSTSYAQKFQGRVTMTRDTSTSTVYMELSSLRSEDTAVYYCAREEYAPFSAEYFQFWGQGTLVTVSS
VL: not shown
notes: Tested as a Fab made in E. coli: VH cloned in Plasmid A (CH1 constant region, His6 and Flag tags), VL in Plasmid C (kappa constant region); also called H:APFF & L:wt
